# From patent publication US20130202609
# B1: GAS57 double mutant D151A+S617A, His-tagged (protein)
# chain: ADELSTMSEPTITNHAQQQAQHLTNTELSSAESKSQDTSQITLKTNREKEQSQDLVSEPTTTELADTDAASMANTGSDATQKSASLPPVNTDVHDWVKTKGAWDKGYKGQGKVVAVIATGIDPAHQSMRISDVSTAKVKSKEDMLARQKAAGINYGSWINDKVVFAHNYVENSDNIKENQFEDFDEDWENFEFDAEAEPKAIKKHKIYRPQSTQAPKETVIKTEETDGSHDIDWTQTDDDTKYESHGMHVTGIVAGNSKEAAATGERFLGIAPEAQVMFMRVFANDIMGSAESLFIKAIEDAVALGADVINLSLGTANGAQLSGSKPLMEAIEKAKKAGVSVVVAAGNERVYGSDHDDPLATNPDYGLVGSPSTGRTPTSVAAINSKWVIQRLMTVKELENRADLNHGKAIYSESVDFKDIKDSLGYDKSHQFAYVKESTDAGYNAQDVKGKIALIERDPNKTYDEMIALAKKHGALGVLIFNNKPGQSNRSMRLTANGMGIPSAFISHEFGKAMSQLNGNGTGSLEFDSVVSKAPSQKGNEMNHFSNWGLTSDGYLKPDITAPGGDIYSTYNDNHYGSQTGTAMASPQIAGASLLVKQYLEKTQPNLPKEKIADIVKNLLMSNAQIHVNPETKTTTSPRQQGAGLLNIDGAVTSGLYVTGKDNYGSISLGNITDTMTFDVTVHNLSNKDKTLRYDTELLTDHVDPQKGRFTLTSHSLKTYQGGEVTVPANGKVTVRVTMDVSQFTKELTKQMPNGYYLEGFVRFRDSQDDQLNRVNIPFVGFKGQFENLAVAEESIYRLKSQGKTGFYFDESGPKDDIYVGKHFTGLVTLGSETNVSTKTISDNGLHTLGTFKNADGKFILEKNAQGNPVLAISPNGDNNQDFAAFKGVFLRKYQGLKASVYHASDKEHKNPLWVSPESFKGDKNFNSDIRFAKSTTLLGTAFSGKSLTGAELPDGHYHYVVSYYPDVVGAKRQEMTFDMILDRQKPVLSQATFDPETNRFKPEPLKDRGLAGVRKDSVFYLERKDNKPYTVTINDSYKYVSVEDNKTFVERQADGSFILPLDKAKLGDFYYMVEDFAGNVAIAKLGDHLPQTLGKTPIKLKLTDGNYQTKETLKDNLEMTQSDTGLVTNQAQLAVVHRNQPQSQLTKMNQDFFISPNEDGNKDFVAFKGLKNNVYNDLTVNVYAKDDHQKQTPIWSSQAGASVSAIESTAWYGITARGSKVMPGDYQYVVTYRDEHGKEHQKQYTISVNDKKPMITQGRFDTINGVDHFTPDKTKALDSSGIVREEVFYLAKKNGRKFDVTEGKDGITVSDNKVYIPKNPDGSYTISKRDGVTLSDYYYLVEDRAGNVSFATLRDLKAVGKDKAVVNFGLDLPVPEDKQIVNFTYLVRDADGKPIENLEYYNNSGNSLILPYGKYTVELLTYDTNAAKLESDKIVSFTLSADNNFQQVTFKITMLATSQITAHFDHLLPEGSRVSLKTAQDQLIPLEQSLYVPKAYGKTVQEGTYEVVVSLPKGYRIEGNTKVNTLPNEVHELSLRLVKVGDASDSTGDHKVMSKNNSQALTASATPT
# Molecular target: interleukin-8 (IL-8; CXCL8)
protein,measurement,value
B1,"IL-8 cleavage, SDS-PAGE with silver staining, 24 hours","unable to cleave IL-8, even at a 100-fold higher concentration than wild-type GAS57"
same,"uncleaved IL-8 after 24 h incubation, ELISA",the mutants release 100% of uncleaved IL-8 after 24 h incubation
